Data: patent US20150299268A1 (UNIVERSITY OF MARYLAND BALTIMORE, published 2015)

Columns and labels:
Experiment in all cases: capture ELISA
BaL-gp120-S334A = molecular target: T1, BaL-gp120-S334A (HIV-1 BaL)
T1 construct: domain: gp120; glycan mutant

BaL-gp120-E106AD107A = molecular target: T2, BaL-gp120-E106AD107A (HIV-1 BaL)
T2 construct: domain: gp120

BaL-gp120-S200A = molecular target: T3, BaL-gp120-S200A (HIV-1 BaL)
T3 construct: domain: gp120; also called 5200A

BaL-gp120-E492A = molecular target: T4, BaL-gp120-E492A (HIV-1 BaL)
T4 construct: domain: gp120

BaL-gp120-G495A = molecular target: T5, BaL-gp120-G495A (HIV-1 BaL)
T5 construct: domain: gp120

BaL-gp120-L494A = molecular target: T6, BaL-gp120-L494A (HIV-1 BaL)
T6 construct: domain: gp120

BaL-gp120-R476A = molecular target: T7, BaL-gp120-R476A (HIV-1 BaL)
T7 construct: domain: gp120

BaL-gp120-E32A = molecular target: T8, BaL-gp120-E32A (HIV-1 BaL)
T8 construct: domain: gp120

BaL-gp120-K33A = molecular target: T9, BaL-gp120-K33A (HIV-1 BaL)
T9 construct: domain: gp120

BaL-gp120-K46A = molecular target: T10, BaL-gp120-K46A (HIV-1 BaL)
T10 construct: domain: gp120

BaL-gp120-E47AE91A = molecular target: T11, BaL-gp120-E47AE91A (HIV-1 BaL)
T11 construct: domain: gp120

BaL-gp120-T303A = molecular target: T12, BaL-gp120-T303A (HIV-1 BaL)
T12 construct: domain: gp120; glycan mutant, V3 region

BaL-gp120-D78A = molecular target: T13, BaL-gp120-D78A (HIV-1 BaL)
T13 construct: domain: gp120

BaL-gp120-P76A = molecular target: T14, BaL-gp120-P76A (HIV-1 BaL)
T14 construct: domain: gp120

BaL-gp120-D62A = molecular target: T15, BaL-gp120-D62A (HIV-1 BaL)
T15 construct: domain: gp120

BaL-gp120-V44A = molecular target: T16, BaL-gp120-V44A (HIV-1 BaL)
T16 construct: domain: gp120

BaL-gp120-V68A = molecular target: T17, BaL-gp120-V68A (HIV-1 BaL)
T17 construct: domain: gp120

BaL-gp120-Y39A = molecular target: T18, BaL-gp120-Y39A (HIV-1 BaL)
T18 construct: domain: gp120

BaL-gp120-W35A = molecular target: T19, BaL-gp120-W35A (HIV-1 BaL)
T19 construct: domain: gp120

BaL-gp120-S158A = molecular target: T20, BaL-gp120-S158A (HIV-1 BaL)
T20 construct: domain: gp120

BaL-gp120-R476AR480A = molecular target: T21, BaL-gp120-R476AR480A (HIV-1 BaL)
T21 construct: domain: gp120

BaL-gp120-R58AK59A = molecular target: T22, BaL-gp120-R58AK59A (HIV-1 BaL)
T22 construct: domain: gp120

BaL-gp120-F53A = molecular target: T23, BaL-gp120-F53A (HIV-1 BaL)
T23 construct: domain: gp120

BaL-gp120-I491A = molecular target: T24, BaL-gp120-I491A (HIV-1 BaL)
T24 construct: domain: gp120

BaL-gp120-T455A = molecular target: T25, BaL-gp120-T455A (HIV-1 BaL)
T25 construct: domain: gp120

BaL-gp120-W69A = molecular target: T26, BaL-gp120-W69A (HIV-1 BaL)
T26 construct: domain: gp120

BaL-gp120-D368R = molecular target: T27, BaL-gp120-D368R (HIV-1 BaL)
T27 construct: domain: gp120

BaL-gp120-W45A = molecular target: T28, BaL-gp120-W45A (HIV-1 BaL)
T28 construct: domain: gp120

BaL-gp120-D57A = molecular target: T29, BaL-gp120-D57A (HIV-1 BaL)
T29 construct: domain: gp120

BaL-gp120-P498A = molecular target: T30, BaL-gp120-P498A (HIV-1 BaL)
T30 construct: domain: gp120

FLSC = molecular target: T31, FLSC (HIV-1, UniProt P01730 26-208)
T31 construct: not shown: linker of FLSC not described

BaL-gp120-V75A = molecular target: T32, BaL-gp120-V75A (HIV-1 BaL)
T32 construct: domain: gp120

BaL-gp120 = molecular target: T33, BaL-gp120 (HIV-1 BaL)
T33 construct: domain: gp120; also called monomeric gp120; monomeric BaL gp120

BaL-gp120-E47A = molecular target: T34, BaL-gp120-E47A (HIV-1 BaL)
T34 construct: domain: gp120

BaL-gp120-T162A = molecular target: T35, BaL-gp120-T162A (HIV-1 BaL)
T35 construct: domain: gp120; glycan mutant

BaL-gp120-D57AD62A = molecular target: T36, BaL-gp120-D57AD62A (HIV-1 BaL)
T36 construct: domain: gp120

BaL-gp120-P493A = molecular target: T37, BaL-gp120-P493A (HIV-1 BaL)
T37 construct: domain: gp120

BaL-gp120-I420R = molecular target: T38, BaL-gp120-I420R (HIV-1 BaL)
T38 construct: domain: gp120; also called -1420R

BaL-gp120-T499A = molecular target: T39, BaL-gp120-T499A (HIV-1 BaL)
T39 construct: domain: gp120

BaL-gp120-K500A = molecular target: T40, BaL-gp120-K500A (HIV-1 BaL)
T40 construct: domain: gp120

BaL-gp120-Y40A = molecular target: T41, BaL-gp120-Y40A (HIV-1 BaL)
T41 construct: domain: gp120

BaL-gp120-E31A = molecular target: T42, BaL-gp120-E31A (HIV-1 BaL)
T42 construct: domain: gp120

BaL-gp120-K487AK490A = molecular target: T43, BaL-gp120-K487AK490A (HIV-1 BaL)
T43 construct: domain: gp120

BaL-gp120-V496A = molecular target: T44, BaL-gp120-V496A (HIV-1 BaL)
T44 construct: domain: gp120

B1: N60-B1.1 (antibody, V domains shown)
VH: QLQLQESGPGLVKPSGTLSLTCSVSGGSMNGRNIYWAWIRQTPGKGLEWIGSVDVSDEDAGRTFYKWPIKSRASISADTSKNQFSLKLSSVTVADTGVYYCARETLYYVGNGYYYPLDVFYYNYYMDVWGKGTTVSVSS
VL: not shown
notes: also called bnAb N60-B1.1
Question: What does the source list for B1?
Answer: % Binding (BaL-gp120-S334A): 91%; % Binding (BaL-gp120-E106AD107A): 36%; % Binding (BaL-gp120-S200A): 22%; % Binding (BaL-gp120-E492A): 113%; % Binding (BaL-gp120-G495A): 106%; % Binding (BaL-gp120-L494A): 99%; % Binding (BaL-gp120-R476A): 57%; % Binding (BaL-gp120-E32A): 108%; % Binding (BaL-gp120-K33A): 76%; % Binding (BaL-gp120-K46A): 50%; % Binding (BaL-gp120-E47AE91A): 73%; % Binding (BaL-gp120-T303A): 2%; % Binding (BaL-gp120-D78A): 108%; % Binding (BaL-gp120-P76A): 102%; % Binding (BaL-gp120-D62A): 80%; % Binding (BaL-gp120-V44A): 114%; % Binding (BaL-gp120-V68A): 68%; % Binding (BaL-gp120-Y39A): 121%; % Binding (BaL-gp120-W35A): 132%; % Binding (BaL-gp120-S158A): 3%; % Binding (BaL-gp120-R476AR480A): 5%; % Binding (BaL-gp120-R58AK59A): 92%; % Binding (BaL-gp120-F53A): 90%; % Binding (BaL-gp120-I491A): 85%; % Binding (BaL-gp120-T455A): 73%; % Binding (BaL-gp120-W69A): 84%; % Binding (BaL-gp120-D368R): 99%; % Binding (BaL-gp120-W45A): 84%; % Binding (BaL-gp120-D57A): 98%; % Binding (BaL-gp120-P498A): 101%; % Binding (FLSC): 10%; % Binding (BaL-gp120-V75A): 104%; % Binding (BaL-gp120): 100%; % Binding (BaL-gp120-E47A): 78%; % Binding (BaL-gp120-T162A): 100%; % Binding (BaL-gp120-D57AD62A): 76%; % Binding (BaL-gp120-P493A): 92%; % Binding (BaL-gp120-I420R): 22%; % Binding (BaL-gp120-T499A): 102%; % Binding (BaL-gp120-K500A): 94%; % Binding (BaL-gp120-Y40A): 139%; % Binding (BaL-gp120-E31A): 103%; % Binding (BaL-gp120-K487AK490A): 31%; % Binding (BaL-gp120-V496A): 107%
